Assay results: the supplement of paper PMC5998384

Experiments:
HeLa Kyoto [1] = assay: melting temperature (median over replicates), in situ; higher = more thermally stable
HeLa Kyoto [2] = assay: solubility change mitosis vs G1/S (difference of NP-40 vs SDS log2 ratios) (log2 ratio difference); higher = more soluble in mitosis
HeLa Kyoto [3] = assay: solubility in G1/S (NP-40 vs SDS abundance) (log2 ratio); higher = more soluble; conditions: cell cycle stage: G1/S
HeLa Kyoto [4] = assay: thermal stability score vs G1/S (z-score of summed log2 fold changes over temperatures); higher = more thermally stable than in G1/S
[5] = cell cycle stage: early G1 (4.5 h after nocodazole release)
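For melting temperature (median over replicates), in situ in this document: HeLa Kyoto cells synchronized by double thymidine or nocodazole block, proteins quantified by TMT10plex mass spectrometry, three independent biological replicates.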
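For solubility change mitosis vs G1/S (difference of NP-40 vs SDS log2 ratios) in this document: synchronized HeLa Kyoto cells (double thymidine block for G1/S, nocodazole release for mitosis), protein amounts in NP-40 versus SDS lysates quantified by mass spectrometry, three biological replicates.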
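For solubility in G1/S (NP-40 vs SDS abundance) in this document: HeLa Kyoto cells arrested at G1/S by double thymidine block, proteins quantified by TMT10plex mass spectrometry in mild NP-40 versus SDS extracts, three biological replicates.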
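For thermal stability score vs G1/S (z-score of summed log2 fold changes over temperatures) in this document: synchronized HeLa Kyoto cells, proteins quantified by TMT10plex mass spectrometry, three biological replicates, mitosis taken 0.5 h after nocodazole release, G1/S directly after double thymidine block.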

Row | Sequence | melting temperature (HeLa Kyoto [1]; cell cycle stage: G1/S) [°C] | melting temperature (HeLa Kyoto [1]; cell cycle stage: mitosis) [°C] | solubility change mitosis (log2) (HeLa Kyoto [2]) | solubility in G1/S (log2) (HeLa Kyoto [3]) | thermal stability score (HeLa Kyoto [4]; [5]) | thermal stability score (HeLa Kyoto [4]; cell cycle stage: mitosis)
1 | MVLCPVIGKLLHKRVVLASASPRRQEILSNAGLRFEVVPSKFKEKLDKASFATPYGYAMETAKQKALEVANRLYQKDLRAPDVVIGADTIVTVGGLILEKPVDKQDAYRMLSRLSGREHSVFTGVAIVHCSSKDHQLDTRVSEFYEETKVKFSELSEELLWEYVHSGEPMDKAGGYGIQALGGMLVESVHGDFLNVVGFPLNHFCKQLVKLYYPPRPEDLRRSVKHDSIPAADTFEDLSDVEGGGSEPTQRDAGSRDEKAEAGEAGQATAEAECHRTRETLPPFPTRLLELIEGFMLSKGLLTACKLKVFDLLKDEAPQKAADIASKVDASACGMERLLDICAAMGLLEKTEQGYSNTETANVYLASDGEYSLHGFIMHNNDLTWNLFTYLEFAIREGTNQHHRALGKKAEDLFQDAYYQSPETRLRFMRAMHGMTKLTACQVATAFNLSRFSSACDVGGCTGALARELAREYPRMQVTVFDLPDIIELAAHFQPPGPQAVQIHFAAGDFFRDPLPSAELYVLCRILHDWPDDKVHKLLSRVAESCKPGAGLLLVETLLDEEKRVAQRALMQSLNMLVQTEGKERSLGEYQCLLELHGFHQVQVVHLGGVLDAILATKVAP [ASMTL] | 51.6 | 50.8 | -0.178 | -0.0739 | 0.0527 | 0.533
2 | MVMAAKKGPGPGGGVSGGKAEAEAASEVWCRRVRELGGCSQAGNRHCFECAQRGVTYVDITVGSFVCTTCSGLLRGLNPPHRVKSISMTTFTEPEVVFLQSRGNEVCRKIWLGLFDARTSLVPDSRDPQKVKEFLQEKYEKKRWYVPPDQVKGPTYTKGSASTPVQGSIPEGKPLRTLLGDPAPSLSVAASTSSQPVSQSHARTSQARSTQPPPHSSVKKASTDLLADIGGDPFAAPQMAPAFAAFPAFGGQTPSQGGFANFDAFSSGPSSSVFGSLPPAGQASFQAQPTPAGSSQGTPFGATPLAPASQPNSLADVGSFLGPGVPAAGVPSSLFGMAGQVPPLQSVTMGGGGGSSTGLAFGAFTNPFTAPAAQSPLPSTNPFQPNGLAPGPGFGMSSAGPGFPQAVPPTGAFASSFPAPLFPPQTPLVQQQNGSSFGDLGSAKLGQRPLSQPAGISTNPFMTGPSSSPFASKPPTTNPFL [AGFG2] | 46.6 | 47.9 | -0.0538 | 0.247 | 0.518 | 0.826
3 | MVPALRYLVGACGRARGLFAGGSPGACGFASGRPRPLCGGSRSASTSSFDIVIVGGGIVGLASARALILRHPSLSIGVLEKEKDLAVHQTGHNSGVIHSGIYYKPESLKAKLCVQGAALLYEYCQQKGISYKQCGKLIVAVEQEEIPRLQALYEKGLQNGVPGLRLIQQEDIKKKEPYCRGLMAIDCPHTGIVDYRQVALSFAQDFQEAGGSVLTNFEVKGIEMAKESPSRSIDGMQYPIVIKNTKGEEIRCQYVVTCAGLYSDRISELSGCTPDPRIVPFRGDYLLLKPEKCYLVKGNIYPVPDSRFPFLGVHFTPRMDGSIWLGPNAVLAFKREGYRPFDFSATDVMDIIINSGLIKLASQNFSYGVTEMYKACFLGATVKYLQKFIPEITISDILRGPAGVRAQALDRDGNLVEDFVFDAGVGDIGNRILHVRNAPSPAATSSIAISGMIADEVQQRFEL [L2HGDH] | 53.9 | 53.6 | -0.123 | 0.0471 | 0.996 | 0.751
4 | MVQAWYMDDAPGDPRQPHRPDPGRPVGLEQLRRLGVLYWKLDADKYENDPELEKIRRERNYSWMDIITICKDKLPNYEEKIKMFYEEHLHLDDEIRYILDGSGYFDVRDKEDQWIRIFMEKGDMVTLPAGIYHRFTVDEKNYTKAMRLFVGEPVWTAYNRPADHFEARGQYVKFLAQTA [ADI1] | 51.1 | 51.1 | -0.0474 | 0.18 | -0.911 | -0.735
5 | MVQLYNLHPFGSQQVVPCKLEPDRFCGGGRDALFVAAGCKVEAFAVAGQELCQPRCAFSTLGRVLRLAYSEAGDYLVAIEEKNKATFLRAYVNWRNKRTENSRVCIRMIGHNVEGPFSKAFRDQMYIIEMPLSEAPLCISCCPVKGDLLVGCTNKLVLFSLKYQIINEEFSLLDFERSLIIHIDNITPVEVSFCVGYVAVMSDLEVLIVKLESGPKNGERVHHHPHKTNNRIRRTEEGISNEISQLESDDFVICQKPLELLGEKSEQSGLSVTLESTGLADEKRKYSHFQHLLYRRFAPDISSYVLSDDIKLHSLQLLPIYQTGSLTSDGKNLSQEKELLSLFCFFSLPHVGYLYMVVKSVELMSVYQYPEKSQQAVLTPQFLHVITSNNLQCFTVRCSAAAAREEDPYMDTTLKACPPVSMDVCALRIQLFIGLKAICHFKNHIILLTKAEPEAIPERRQSPKRLLSRKDTSVKIKIPPVAEAGWNLYIVNTISPVQLYKEMVDYSNTYKTVKTQSCIHLLSEAHLLVRAALMDASQLEPGEKAELLEAFKESCGHLGDCYSRLDSQHSHLTLPYYKMSGLSMAEVLARTDWTVEDGLQKYERGLIFYINHSLYENLDEELNEELAAKVVQMFYVAEPKQVPHILCSPSMKNINPLTAMSYLRKLDTSGFSSILVTLTKAAVALKMGDLDMHRNEMKSHSEMKLVCGFILEPRLLIQQRKGQIVPTELALHLKETQPGLLVASVLGLQKNNKIGIEEADSFFKVLCAKDEDTIPQLLVDFWEAQLVACLPDVVLQELFFKLTSQYIWRLSKRQPPDTTPLRTSEDLINACSHYGLIYPWVHVVISSDSLADKNYTEDLSKLQSLICGPSFDIASIIPFLEPLSEDTIAGLSVHVLCRTRLKEYEQCIDILLERCPEAVIPYANHELKEENRTLWWKKLLPELCQRIKCGGEKYQLYLSSLKETLSIVAVELELKDFMNVLPEDGTATFFLPYLLYCSRKKPLT [HPS3] | 51.4 | 50.6 | -0.103 | -0.0533 | 0.612 | 0.736
